According to the nanobody polyreactivity screen of Harvey et al. (2022):

Experiment: yeast display, Sf9 membrane polyspecificity reagent, FACS + sequencing; frameworks hold sequencing errors
Procedure, shortened: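 A nanobody's polyreactivity label depends on the gate it was sorted from. Yeast display cells were stained with 10% biotinylated, detergent-solubilized Sf9 membrane reagent for 1 hour at 4 °C, enriched on streptavidin microbeads and sorted by FACS. The low and high (top ~1%) gates were set on anti-HA fluorescence for expression and streptavidin fluorescence for reagent binding.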

Sequence | polyreactivity (PSR sort gate)
QVQLVESGGGLVQAGVSLRLSCAASGSIFAYYAMGWYRQAPGKERELVATIRSSGGRTYYADSVKGRFTISRDNAKNNVYLHLNSLKPEDTAVYYCAAERSITYDYWGQGTQVTVSS | high polyreactivity
QVQLVESGGGLVQAGVSLRLSCAASGSIFGHYAMGWYRQAPGKERELVAAISWSGTSTYYADSVKGRFTISRDNAKNTVYLQMNSLKPEDTAVYYCNVVYRVVSPSGGGYWGQGTQVTVSS | high polyreactivity
QVQLVESGGGLVQAGVSLRLSCAASGSIFRIYGMGWYRQAPGKEREFVAAITHSGGSTYYADSVKGRFTISRDNAKNTVYLQMNSLKPEDTAVYYCAAEDYNYWSYDYWGQGTQVTVSS | low polyreactivity
QVQLVESGGGLVQAGVSLRLSCAASGSIFYYYAMGWYRPAPGKERELVAAITRSGGSTYYADSVKGRFTISRDNAKNTVYLQMNSLKPEDTAVYYCAKDAHAYRDLDYWGQGTQVTVSS | low polyreactivity
QVQLVESGGGLVQAGVSLRLSCAASGSTFAFYDMGWYRQAPGKERELVAGISSSGSTYYADSVKGPFTISRDNAKNTVYLQMNSLKPEDTAVYYCAADAPYLVPYGWWDYDYDYWGQGTQVTVSS | low polyreactivity
QVQLVESGGGLVQAGVSLRLSCAASGSTFPVNTMGWYRQAPGKERELVAAISWSGGRTYYADSVKGRFTISRDNAKNNVYLQMNILKPEDTAVYYCAADIGSYYYYTYYYWGQGSQVTVSS | high polyreactivity
QVQLVESGGGLVQAGVSLRLSCAASGSTFYRKTMGWYIQAPGKERELVAAISSSGGSTYYADSVNGRFTISRDNAKNTVYLQMNSLKPEDTAVYYCADTYSPFDFYYWRQGTQVTVSS | low polyreactivity
QVQLVESGGGLVQAGVSLRLSCAASGSTVGYNAMGWYRQAPGKERELVAAISGNGGSTYADSVKGRFTISRDNAKNTVYLQMNSLKPEDTAVYFCAAVQYGYGLASDSIFDYWGQGTQVTVSS | high polyreactivity
QVQLVESGGGLVQAGVSLRLSCAASGTFFGYAMGWYRQAPGKERELVASITSGDSTNYADSVKGRFTISRDNAKKTVYLQMNSLKPEDTAVYYCNADRFADYDYWGQGTQVTVSS | low polyreactivity
QVQLVESGGGLVQAGVSLRLSCAASGYIFRFNAMGWYRQAPGKERELVAVITSGARTYYADSVKGRFTISRDNAKNTVYLQMNSLKPEDTAVYYCNAGARRYLYDYWGQGTQVTVSS | low polyreactivity
QVQLVESGGGLVQAGVSLRLSCASSGFTFHYYAMGWYRQAPGKERELVAAISWSSGRTYYADSVKGRFTISRDNAKNTVYLQMNSLKPEDTAVYYCAASSYNRGDYWGQGTQVTVSS | low polyreactivity
QVQLVESGGGLVQAGVSLRLSCDASGSILRENAMGWYRQAPGKERELVAVITRGGNTYYADSVKGRFTISRDNAKNTVYLQMNSLKPEDTAVYYCAAKRRERYGLTYGYWGQGTQVTVSS | high polyreactivity
QVQLVESGGGLVQARGILRLSCAASGNIFGRYAMGWSRQAPGKERELVAAITRSCGRTYYADSVKGRFTISRHHAKNTVYLQRNSLKPEDTAGYYCAAVGGRDVYPVVDRDYWGQGTQLTVSS | low polyreactivity
QVQLVESGGGLVQARGSLRLICAASVQIFRVYAMGWSRQAPGKEREFVAAMTYDGGNTYYADSVKGRFTISRDNAKNTVYLQMLSLKPEDTAVYYCAKDYGEWGQGTQVTVSS | low polyreactivity
QVQLVESGGGLVQARGSLRLSCAASGFIIRWNTKGWYRQAPGKVRELVAAISSRGGSTYYADSVKGRFKISRDNAKNTVYLQMNSRKPEDTAVYYCNAVRGDEYWGLGTQVTVSS | high polyreactivity
QVQLVESGGGLVQARGSLRLSCAASGFIYRYNVMGWYRQAPGKERELVAAISTSGGRTYYADSVKGRFTISRDNAKITVYLQMNSLKPEDTAVYYCIAVISEVHKVRDGFYWGQGSQVTVSS | high polyreactivity

Sequence | polyreactivity (PSR sort gate)
QVQLVESGGGLVQARGSLRLSCAASGFNISNYAMGWYREAPGKESELVAAIRRSGGSTYYADSVKGRFTISRDNAKNTVYLQMNSRKPEDTAVYYCAAYPKRGSRYDYWGLGTQVTVSS | high polyreactivity
QVQLVESGGGLVQARGSLRLSCAASGFTFPSYAMGWYRQAPGKERELVARITWIGGRTYYADSVKGRFTISRDNAKNTVYLQMNSLKPEDSAVYYCAARIGGGPVKYDYWGQGTQVTVSS | high polyreactivity
QVQLVESGGGLVQARGSLRLSCAASGFTFSDYVMGWYRQAPGKERELVAVITSGSSTYYADSVKGRFTISRDNAKNTVYLQMNSLKPEDTAVYYCNADPDDGYFSDFDYWGQGTQVTVSS | low polyreactivity
QVQLVESGGGLVQARGSLRLSCAASGFTFSRYAMGWYRQAPGKERELVAAITRSGGSTYYADSVKGRFTISRDNAKNTVYLQMNSLKPEDTAVYYCAKRAASGFRWDSGYWGQGTQVTVSS | high polyreactivity
QVQLVESGGGLVQARGSLRLSCAASGGIFDTYVMGWYRQAPGKERELVAAISCSGSTTYADSVKGRFTISRDNAKYTVYLQMNSLKPEDTAVYYCNADYSTIWRYDYWGQGTQVTVSS | low polyreactivity
QVQLVESGGGLVQARGSLRLSCAASGGTFESYAMGWYRQAPGKERELVAAITYSGGSTYYADSVKGRFTISRDNAKNTVYLQMNSLKPEDTAVYYCAARPRFITYKRYYWGQGTQVTVSS | high polyreactivity
QVQLVESGGGLVQARGSLRLSCAASGGTFLSYAMGWYRQAPGKERELVAGISSGGSTNYADSVKGRFTISRDNAKNTVYLQMNSLKPEDTAVDYCAADSFPSEFDYWGQGTQVTVSS | low polyreactivity
QVQLVESGGGLVQARGSLRLSCAASGIIFKGYAMGWYRQAPGKERELVAGITRYGGGTYYADSVKGRFTISRDNAMNTVYLQMNRLKPEDTAVYYCAAVRIARAVQDYDYWGQGTQVTVSS | high polyreactivity
QVQLVESGGGLVQARGSLRLSCAASGITFRVNAMGWYRPAPGKERELVAAISRGGGSTYYADSVKGRFTISRDNAKNTVYLQMNSLKPEDTAVYFCAASYGAPYGYKRYYYWGQGTQVTVSS | high polyreactivity
QVQLVESGGGLVQARGSLRLSCAASGLIFKYNVMGWYRQAPGTERELVAAITWGGTRTYYADSVKGRFTISRDNAKNTVYLQMNSLKPEDTAVYYCARSHWTWLLIYIGAQDYDYWGQGTQVTVSS | low polyreactivity
QVQLVESGGGLVQARGSLRLSCAASGNTIIRYAMGWYRQAPGKERELVAAISYAGGRTYYADSVKGRFTISRDNAKNTVYLQMNSLTPEDTAVYYCNAASRYGGDYWGQGTQVTVSS | high polyreactivity
QVQLVESGGGLVQARGSLRLSCAASGRIFGNNAKGWYRQAPGKARELVAAIRRGGSTYYADSVKGRFTISRDNAKITVYLQMNSLKPEETAVYYCAADSSRKHFYWGQGTQVTVSS | high polyreactivity
QVQLVESGGGLVQARGSLRLSCAASGRIFSYNDMGWYRQAPGTERELVAVISIRGGGTYYADSVKGRFTISRDNAKNTVYFQMNSLKPEDTAVYYCNAEYVTFGEEYGYWGQGTQVTVSS | low polyreactivity
QVQLVESGGGLVQARGSLRLSCAASGRTFRYYTMGWYRQAPGKEREFVAAITFRGGSTYYADSVKGRFTISRDNAKNTVYLQMNSLKPEDTAVYYCAAVGRYSRYPYSDTYGYWGQGTQVTVSS | high polyreactivity
QVQLVESGGGLVQARGSLRLSCAASGRTLTYNAMGWYRPAPGKERELVAVISSRGDTTYYADSVKGRFTISRDNAKNTVYLQRNSLKPEDTAVYFCNSALSGRRSYYYWGQGTQVTVSS | low polyreactivity
QVQLVESGGGLVQARGSLRLSCAASGSIFRYNAMGWYRQAPGKERELVAAITSAGGSTYYADSVKGRFTISRDKAKNTVYLQMNSLKPEDTAVYYCAVRYYVYFPWPRVTERMYYWGQGTQVTVSS | high polyreactivity
